Values belong to the binder of their own block, whether it stands above or below them.
Experiments:
[1] = biological target: T1, huPD-L1-His (human PD-L1 with a C-terminal polyhistidine tag) (human, UniProt Q9NZQ7 19-239); assay: dual-binding ELISA, huPD-L1-His coated, binder titrated, detection with biotinylated huCD137-His
T1 construct: Bought; also called biotinylated huPD-L1-His
Protocol: (§1) Recombinant huPD-L1-His (R&D Systems) in PBS (1 μg/mL) was coated overnight on microtiter plates at 4° C. The plates were washed five times after each incubation step with 100 μL PBS-0.05% T. The plates were blocked with 2% BSA (w/v) in PBS-0.1% T for 1 h at room temperature and subsequently washed again. Different concentrations of tested fusion proteins were added to the wells and incubated for 1 h at room temperature, followed by a wash step. […] After washing, a 1:5000 dilution of ExtrAvidin-HRP (Sigma-Aldrich) in PBS-0.1% T-2% BSA was added to the wells and incubated for 1 h. After an additional wash step, fluorogenic HRP substrate (QuantaBlu, Thermo) was added to each well, and the fluorescence intensity was detected using a fluorescence microplate reader.

[2] = biological target: T2, huCD137-His (human CD137 with a C-terminal polyhistidine tag) (human, UniProt Q07011 24-186); assay: SPR (Biacore), binder captured by anti-human IgG Fc, huCD137-His in solution, 25 C, 1:1 model
T2 construct: Bought; also called huCD137-His-Bio
Protocol: The binding kinetics and affinity of exemplary fusion proteins to huPD-L1-His or huCD137-His (human PD-L1 or human CD137 with a C-terminal polyhistidine tag, R&D Systems) were determined by surface plasmon resonance (SPR) using a Biacore 8K or a Biacore T200 (GE Healthcare).
The anti-human IgG Fc antibody (GE Healthcare) was immobilized on a CM5 sensor chip using standard amine chemistry: the carboxyl groups on the chip were activated using 1-ethyl-3-(3-dimethylaminopropyl)-carbodiimide (EDC) and N-hydroxysuccinimide (NHS). Subsequently, anti-human IgG Fc antibody solution (GE Healthcare) at a concentration of 25 μg/mL in 10 mM sodium acetate (pH 5.0) was applied at a flow rate of 5 μL/min until an immobilization level of 6000-10000 resonance units (RU) was achieved. Residual non-reacted NHS-esters were blocked by passing a solution of 1M ethanolamine across the surface. The reference channel was treated in an analogous manner. […] After each capture step, the needle was washed.
Double referencing was used and the 1:1 binding model was used to fit the raw data.

[3] = biological target: T3, human PD-L1 expressed on cells (human, UniProt Q9NZQ7 19-290); assay: flow cytometry, RKO tumor cells (PD-L1-positive)
T3 construct: whole, on cells; also called Flp-In-CHO::huPDL-1; RKO cells
Protocol: (§2) 5×10⁴ cells per well were incubated for 1 h in ice-cold PBS containing 5% fetal calf serum (PBS-FCS). A dilution series of the fusion proteins and control antibodies were added to the cells and incubated for 1 h on ice. Cells were washed twice with PBS and then incubated with a goat anti-hIgG Alexa647-labeled antibody for 30 min on ice. Cells were subsequently washed and analyzed using iQue Flow cytometer (Intellicyte Screener). Mean geometric fluorescent signals were plotted and fitted with Graphpad software using nonlinear regression (shared bottom, SLOPE=1).
For flow cytometric analysis, RKO cells were incubated with fusion proteins and detected using a fluorescently labeled anti-human IgG antibody as described in Example 6.

[4] = biological target: T1, huPD-L1-His (human PD-L1 with a …); assay: ELISA, huPD-L1-His coated, detection anti-human IgG Fc-HRP
Protocol: (§3) Recombinant huPD-L1-His or cyPD-L1-His (human or cynomolgus PD-L1 with a C-terminal polyhistidine tag, R&D Systems or Sino Biologics) at the concentration of 1 μg/mL in PBS was coated overnight on microtiter plates at 4° C. After washing with PBS-0.05% T (PBS supplemented with 0.05% (v/v) Tween 20), the plates were blocked with 2% BSA (w/v) in PBS-0.1% T (PBS supplemented with 0.1% (v/v) Tween 20) for 1 h at room temperature. […] Bound molecules under study were detected by incubation with 1:5000 diluted anti-human IgG Fc-HRP (Jackson Laboratory) in PBS-0.1% T-2% BSA. After an additional wash step, fluorogenic HRP substrate (QuantaBlu, Thermo) was added to each well and the fluorescence intensity was detected using a fluorescence microplate reader.

[5] = biological target: T4, cynomolgus CD137 expressed on cells (cynomolgus, UniProt A9YYE7 24-254); assay: flow cytometry, Flp-In-CHO::cynoCD137 cells
T4 construct: also called Flp-In-CHO::cynoCD137
Protocol: (§4) The geometric means of the fluorescence intensity were used to calculate EC₅₀ values using nonlinear regression (shared bottom, SLOPE=1).
as §2

[6] = biological target: T2, huCD137-His (human CD137 with a …); assay: dual-binding ELISA, huCD137-His coated, binder titrated, detection with biotinylated huPD-L1-His
[7] = biological target: T2, huCD137-His (human CD137 with a …); assay: ELISA, huCD137-His coated, detection anti-NGAL-HRP
Protocol: as §3
The same ELISA setup was also employed to determine the binding potency of fusion proteins to CD137, where huCD137-His (human CD137 with C-terminal polyhistidine tag, R&D Systems) or cyCD137-Fc (cynomolgus CD137 C-terminally fused to Fc) was instead coated on a microtiter plate. The testing agents were similarly titrated and bound agents were detected via anti-NGAL-HRP.

[8] = biological target: T3, human PD-L1 expressed on cells; assay: flow cytometry, Flp-In-CHO::huPDL-1 cells
Protocol: as §4, §2

[9] = biological target: T1, huPD-L1-His (human PD-L1 with a …); assay: dual-binding ELISA, huPD-L1-His coated, binder titrated, detection with biotinylated huCD137-His; PD-L1 capture, CD137 detection (simultaneous binding of both targets)
Protocol: as §1

[10] = biological target: T3, human PD-L1 expressed on cells; assay: cell-based or functional assay

T3 sequence (Q9NZQ7 19-290): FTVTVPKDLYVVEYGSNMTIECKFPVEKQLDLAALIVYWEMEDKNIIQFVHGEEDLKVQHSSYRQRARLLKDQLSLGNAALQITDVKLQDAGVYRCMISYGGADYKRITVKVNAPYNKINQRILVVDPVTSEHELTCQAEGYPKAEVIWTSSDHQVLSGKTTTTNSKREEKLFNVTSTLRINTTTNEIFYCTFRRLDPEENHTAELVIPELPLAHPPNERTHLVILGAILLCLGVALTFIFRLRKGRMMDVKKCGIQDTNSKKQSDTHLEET
T1 sequence (Q9NZQ7 19-239 limits assumed): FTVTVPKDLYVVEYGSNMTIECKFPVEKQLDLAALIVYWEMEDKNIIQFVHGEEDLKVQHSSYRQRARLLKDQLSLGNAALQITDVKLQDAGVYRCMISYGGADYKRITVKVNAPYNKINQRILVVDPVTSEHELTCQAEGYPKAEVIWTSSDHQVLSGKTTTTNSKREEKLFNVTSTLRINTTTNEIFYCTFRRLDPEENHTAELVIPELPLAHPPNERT
T2 sequence (Q07011 24-186 limits assumed): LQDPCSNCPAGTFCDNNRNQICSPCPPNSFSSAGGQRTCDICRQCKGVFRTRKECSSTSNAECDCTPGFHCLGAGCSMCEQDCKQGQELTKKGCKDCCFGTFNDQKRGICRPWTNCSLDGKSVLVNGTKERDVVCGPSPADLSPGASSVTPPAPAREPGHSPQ
T4 sequence (A9YYE7 entry or part of it limits assumed): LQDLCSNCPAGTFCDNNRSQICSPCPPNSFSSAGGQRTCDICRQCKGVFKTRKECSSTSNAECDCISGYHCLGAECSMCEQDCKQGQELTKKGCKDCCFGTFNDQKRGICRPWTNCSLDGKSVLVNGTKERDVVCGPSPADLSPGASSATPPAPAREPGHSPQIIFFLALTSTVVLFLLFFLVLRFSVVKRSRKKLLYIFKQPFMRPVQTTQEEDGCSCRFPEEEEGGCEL

EC50 [1]: 0.59 nM | Kd [2]: 5.11 nM | koff [2]: 0.000175 s⁻¹ | kon [2]: 34200 M⁻¹ s⁻¹ | EC50 [3]: 0.45 nM | EC50 [4]: 0.23 nM | EC50 [5]: 39.1 nM | EC50 [6]: 3.3 nM | EC50 [7]: 0.57 nM | EC50 [8]: 1.43 nM
B1: fusion protein SEQ ID NOs: 86 and 91 (bispecific antibody, human IgG4 S228P, kappa, F234A L235A)
heavy: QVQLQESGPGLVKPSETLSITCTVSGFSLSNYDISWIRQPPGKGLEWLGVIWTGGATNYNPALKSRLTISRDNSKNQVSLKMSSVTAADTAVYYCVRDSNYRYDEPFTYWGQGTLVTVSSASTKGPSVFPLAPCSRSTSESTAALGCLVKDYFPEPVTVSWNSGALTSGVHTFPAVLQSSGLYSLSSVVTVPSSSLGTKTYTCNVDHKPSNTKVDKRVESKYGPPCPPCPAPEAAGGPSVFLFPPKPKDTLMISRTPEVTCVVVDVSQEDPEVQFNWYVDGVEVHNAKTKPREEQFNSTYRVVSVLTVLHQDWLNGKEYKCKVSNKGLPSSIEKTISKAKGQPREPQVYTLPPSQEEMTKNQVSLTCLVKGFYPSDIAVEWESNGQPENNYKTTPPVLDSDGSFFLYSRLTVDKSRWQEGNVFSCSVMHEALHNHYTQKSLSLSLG
light: EIVLTQSPDTLSVTPKEKVTLTCRASQSIGTNIHWFQQKPGQSPKLLIKYASESISGVPSRFSGSGSGTDFTLTINSVEAEDAATYYCQQSNSWPYTFGQGTKLEIKRTVAAPSVFIFPPSDEQLKSGTASVVCLLNNFYPREAKVQWKVDNALQSGNSQESVTEQDSKDSTYSLSSTLTLSKADYEKHKVYACEVTHQGLSSPVTKSFNRGECGGGGSGGGGSGGGGSQDSTSDLIPAPPLSKVPLQQNFQDNQFHGKWYVVGQAGNIRLREDKDPIKMMATIYELKEDKSYDVTMVKFDDKKCMYDIWTFVPGSQPGEFTLGKIKSFPGHTSSLVRVVSTNYNQHAMVFFKFVFQNREEFYITLYGRTKELTSELKENFIRFSKSLGLPENHIVFPVPIDQCIDG
notes: Antibody-lipocalin mutein fusion, IgG4 S228P backbone; Bivalent to CD137

Kd [2]: 6.48 nM | koff [2]: 0.000255 s⁻¹ | kon [2]: 39300 M⁻¹ s⁻¹ | EC50 [9]: 0.58 nM | EC50 [3]: 0.51 nM | EC50 [nM] (PD-1/PD-L1 blockade bioassay, NFAT-RE-mediated luminescence) [10]: 0.49 nM | EC50 [4]: 0.15 nM | EC50 [5]: 51.4 nM | EC50 [6]: 2.9 nM | EC50 [7]: 0.28 nM | EC50 [8]: 3.64 nM
B2: fusion protein SEQ ID NOs: 90 and 87 (bispecific antibody, human IgG4 S228P, kappa, F234A L235A)
heavy: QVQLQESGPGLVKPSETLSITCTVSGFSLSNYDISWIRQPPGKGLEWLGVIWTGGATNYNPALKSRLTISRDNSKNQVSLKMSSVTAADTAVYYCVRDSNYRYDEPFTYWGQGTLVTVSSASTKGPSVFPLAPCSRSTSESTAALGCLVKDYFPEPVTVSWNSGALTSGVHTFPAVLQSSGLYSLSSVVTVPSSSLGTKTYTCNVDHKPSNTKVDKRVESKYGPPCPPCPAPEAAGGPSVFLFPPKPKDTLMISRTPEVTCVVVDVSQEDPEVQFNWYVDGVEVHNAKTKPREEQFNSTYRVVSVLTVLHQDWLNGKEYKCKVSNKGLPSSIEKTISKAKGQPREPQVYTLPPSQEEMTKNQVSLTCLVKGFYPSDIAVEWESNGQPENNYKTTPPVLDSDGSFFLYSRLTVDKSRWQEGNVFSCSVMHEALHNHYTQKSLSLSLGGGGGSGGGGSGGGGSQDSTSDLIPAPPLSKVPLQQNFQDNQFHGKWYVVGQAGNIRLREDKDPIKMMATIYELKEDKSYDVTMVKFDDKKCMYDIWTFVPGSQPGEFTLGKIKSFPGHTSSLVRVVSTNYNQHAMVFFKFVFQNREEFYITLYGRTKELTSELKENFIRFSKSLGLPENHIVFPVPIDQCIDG
light: EIVLTQSPDTLSVTPKEKVTLTCRASQSIGTNIHWFQQKPGQSPKLLIKYASESISGVPSRFSGSGSGTDFTLTINSVEAEDAATYYCQQSNSWPYTFGQGTKLEIKRTVAAPSVFIFPPSDEQLKSGTASVVCLLNNFYPREAKVQWKVDNALQSGNSQESVTEQDSKDSTYSLSSTLTLSKADYEKHKVYACEVTHQGLSSPVTKSFNRGEC
notes: Bivalent to CD137

— patent US20210363257A1 (Pieris, published 2021)
